Here are results for six molecules from patent publication US20210253718A1, “FRIZZLED5 PROTEIN-BINDING AGENTS” (Modmab Therapeutics Corporation, priority 2016, published 2021).

Experiment in all cases: Flow cytometry of anti-FZD5 Fab binding to CHO cells overexpressing Frizzled CRD
(In flow cytometry, cells or beads pass a laser one at a time.)

Assay [1] has as its target T1, FZD2 CRD (Homo sapiens, UniProt Q14332).
T1 construct: D35-P161; GPI anchor signal (C); expressed in transfected cells; host or cells: CHO cells, lentiviral pLenti-puro
An outline of the steps:
(§1)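 CHO lines each expressing a different human Frizzled CRD, myc-tagged and GPI-anchored at the surface, stained with 200 nM Fab, then Alexa Fluor 488 F(ab′)2 secondary. Dead cells excluded by viability dye; anti-c-Myc staining served as expression control. Binding read by flow cytometry.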

Assay [2] concerns the target T2, FZD7 CRD (Homo sapiens, UniProt O75084).
T2 construct: D45-S169; GPI anchor signal (C); expressed in transfected cells; host or cells: CHO cells, lentiviral pLenti-puro
An outline of the steps: as §1

Assay [3] has as its target T3, FZD5 CRD (Homo sapiens, UniProt Q13467).
T3 construct: K29-T156; GPI anchor signal (C); expressed in transfected cells; host or cells: CHO cells, lentiviral pLenti-puro
T3 sequence (Q13467 29-156): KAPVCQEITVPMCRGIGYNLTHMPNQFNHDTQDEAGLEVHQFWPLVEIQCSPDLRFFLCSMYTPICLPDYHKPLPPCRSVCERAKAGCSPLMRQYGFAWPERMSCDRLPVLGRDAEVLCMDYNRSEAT
The gist of the method: as §1

Assay [4] deals with T4, FZD4 CRD (Homo sapiens, UniProt Q9ULV1).
T4 construct: E42-V167; GPI anchor signal (C); expressed in transfected cells; host or cells: CHO cells, lentiviral pLenti-puro
T4 sequence (Q9ULV1 42-167): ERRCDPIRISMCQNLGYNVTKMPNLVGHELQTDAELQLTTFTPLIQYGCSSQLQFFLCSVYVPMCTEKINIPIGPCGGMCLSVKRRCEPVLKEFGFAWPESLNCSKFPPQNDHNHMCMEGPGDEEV
An outline of the steps:
as §1

Where a chain is given by its changes, count along the chain named.

B1: Fab-2900: anti-FZD5 Fab with antibody variable region Fv-2900; CDR SEQ ID NOs: 35, 36, 39, 78, 115, 153 (antibody, V domains shown)
VH: EVQLVESGGGLVQPGGSLRLSCAASGFNLSSYYIHWVRQAPGKGLEWVASISSSSSSTSYADSVKGRFTISADTSKNTAYLQMNSLRAEDTAVYYCARGALDYWGQGTLVTVSS
VL: DIQMTQSPSSLSASVGDRVTITCRASQSVSSAVAWYQQKPGKAPKLLIYSASSLYSGVPSRFSGSRSGTDFTLTISSLQPEDFATYYCQQWYSGSSLFTFGQGTKVEIK
For B1, in assay [1], the “Median fluorescence, Frizzled CRD overexpressed on CHO cells: FZD2” value (“Median fluorescence … FZD2” below) came out at 6.15. For the same molecule, in assay [2], the “Median fluorescence, Frizzled CRD overexpressed on CHO cells: FZD7” value (“Median fluorescence … FZD7” below) was found to be 8.98.

B2: Fab-2907: anti-FZD5 Fab with antibody variable region Fv-2907; CDR SEQ ID NOs: 35, 36, 46, 85, 122, 159 (antibody, V domains shown)
VH: EVQLVESGGGLVQPGGSLRLSCAASGFNIYSSYMHWVRQAPGKGLEWVASISSYSGSTYYADSVKGRFTISADTSKNTAYLQMNSLRAEDTAVYYCARSSWGAYIVSYGFDYWGQGTLVTVSS
VL: B1 VL with W91V, Y92G, S93Y, G94W, S95W, S96G, F98I
As for B2, the “Median fluorescence … FZD2” value in assay [1] turned out to be 4.07. In addition, the “Median fluorescence, Frizzled CRD overexpressed on CHO cells: FZD5” value in assay [3] was found to be 32.78. The “Median fluorescence … FZD7” value in assay [2] turned out to be 2.62.

B3: Fab-2925: anti-FZD5 Fab with antibody variable region Fv-2925; CDR SEQ ID NOs: 35, 36, 64, 102, 140, 172 (antibody, V domains shown)
VH: EVQLVESGGGLVQPGGSLRLSCAASGFNLSYSSMHWVRQAPGKGLEWVASIYPSYGSTYYADSVKGRFTISADTSKNTAYLQMNSLRAEDTAVYYCARYGYFGLDYWGQGTLVTVSS
VL: B1 VL with W91A, Y92W, S93V, G94Y, S95A
As for B3, in assay [1], the “Median fluorescence … FZD2” value came out at 10.65. Further, in assay [2], the “Median fluorescence … FZD7” value is on record as 24.14.

B4: Fab-2930: anti-FZD5 Fab with antibody variable region Fv-2930; CDR SEQ ID NOs: 35, 36, 69, 107, 145, 153 (antibody, V domains shown)
VH: B1 VH with S31Y, S52Y, S53P, S54Y, S56G
VL: DIQMTQSPSSLSASVGDRVTITCRASQSVSSAVAWYQQKPGKAPKLLIYSASSLYSGVPSRFSGSRSGTDFTLTISSLQPEDFATYYCQQWYGPYLITFGQGTKVEIK
B4: the “Median fluorescence … FZD2” value in assay [1] was determined as 11.44. For the same molecule, the “Median fluorescence, Frizzled CRD overexpressed on CHO cells: FZD4” value in assay [4] is 9.31.

B5: Fab-2905: anti-FZD5 Fab with antibody variable region Fv-2905; CDR SEQ ID NOs: 35, 36, 44, 83, 120, 157 (antibody, V domains shown)
VH: EVQLVESGGGLVQPGGSLRLSCAASGFNLSYYYMHWVRQAPGKGLEWVASIYSSYSYTSYADSVKGRFTISADTSKNTAYLQMNSLRAEDTAVYYCARSGYALDYWGQGTLVTVSS
VL: DIQMTQSPSSLSASVGDRVTITCRASQSVSSAVAWYQQKPGKAPKLLIYSASSLYSGVPSRFSGSRSGTDFTLTISSLQPEDFATYYCQQSSWYYGYPFTFGQGTKVEIK
Consider B5, for which the “Median fluorescence … FZD2” value in assay [1] was 5.09. In addition, the “Median fluorescence … FZD7” value in assay [2] worked out at 3.43.

B6: Fab-2915: anti-FZD5 Fab with antibody variable region Fv-2915; CDR SEQ ID NOs: 35, 36, 54, 93, 130, 166 (antibody, V domains shown)
VH: EVQLVESGGGLVQPGGSLRLSCAASGFNIYYYSMHWVRQAPGKGLEWVASIYSSYGYTSYADSVKGRFTISADTSKNTAYLQMNSLRAEDTAVYYCARGYHYYPYYSGLDYWGQGTLVTVSS
VL: B4 VL with W91A, G93Y, P94H, Y95S
Consider B6, for which the “Median fluorescence, Frizzled CRD overexpressed on CHO cells: FZD5” value in assay [3] came out at 27.63.
